# Experimental data: US20240117334A1, “FACTOR B PROTEASES” (Vertex Pharmaceuticals Incorporated, priority 2021, published 2024)
# Positions count from the first letter of the chain named. Names and notes keep the numbering of the source. Read-outs that look alike come from different tables or passages of the source.
# B1: C22S/A226R: chymase-based engineered protease, baseline chymase (protein, listed as Homo sapiens)
# chain: IIGGTESKPHSRPYMAYLEIVTSNGPSKFCGGFLIRRNFVLTAAHCAGRSITVTLGAHNITEEEDTWQKLEVIKQFRHPKYNTSTLHHDIMLLKLKEKASLTLAVGTLPFPSQFNFVPPGRMCRVAGWGRTGVLKPGSDTLQEVKLRLMDPQACSHFRDFDHNLQLCVGNPRKTKSAFKGDSGGPLLCAGVAQGIVSYGRSDAKPPRVFTRISHYRPWINQILQAN
# B2: C22S/V138A/G145D/S189T/A190S/A226R (protein, listed as Homo sapiens)
# chain: B1 chain with V125A, G132D, S176T, A177S
# B3: C22S/V138I/L160V/S189T/A226R (protein, listed as Homo sapiens)
# chain: B1 chain with V125I, L146V, S176T
# B4: C22S/V138A/S189T/A226R (protein, listed as Homo sapiens)
# chain: B1 chain with V125A, S176T
# B5: C22S/S218I/A226R (protein, listed as Homo sapiens)
# chain: B1 chain with S201I
# B6: C22S/A220S/A226R (protein, listed as Homo sapiens)
# chain: B1 chain with A203S
# B7: C22S/F173L/Y215H/A226R (protein, listed as Homo sapiens)
# chain: B1 chain with F157L, Y198H
# B8: C22S/V138A/S189T/A226R/F228M (protein, listed as Homo sapiens)
# chain: B1 chain with V125A, S176T, F209M
# B9: C22S/A190S/A226R (protein, listed as Homo sapiens)
# chain: B1 chain with A177S
# B10: C22S/V138A/A226R (protein, listed as Homo sapiens)
# chain: B1 chain with V125A
# B11: C22S/V138L/S189T/A190G/A226R (protein, listed as Homo sapiens)
# chain: B1 chain with V125L, S176T, A177G
# B12: C22S/D175N/A226R (protein, listed as Homo sapiens)
# chain: B1 chain with D159N
# B13: C22S/A226R/F228A (protein, listed as Homo sapiens)
# chain: B1 chain with F209A
# B14: C22S/V138T/A190S/V213A/A226R (protein, listed as Homo sapiens)
# chain: B1 chain with V125T, A177S, V196A
# B15: C22S/V138L/A226R (protein, listed as Homo sapiens)
# chain: B1 chain with V125L
# B16: F41V/L99H/G151V/F173Y/Y215K/R217G/A226R: chymase-based engineered protease (protein, listed as Homo sapiens)
# chain: B1 chain with S7C, F29V, L86H, G137V, F157Y, Y198K, R200G
# B17: C22S: chymase-based engineered protease, chymotrypsin numbering (protein, listed as Homo sapiens)
# chain: B1 chain with R207A
# B18: C22S/V138S/S189T/A226R/F228M (protein, listed as Homo sapiens)
# chain: B1 chain with V125S, S176T, F209M
# B19: C22S/F173Y/A226R (protein, listed as Homo sapiens)
# chain: B1 chain with F157Y
# B20: MTSP-1 (protein, listed as Homo sapiens)
# chain: VVGGTDADEGEWPWQVSLHALGQGHICGASLISPNWLVSAAHCYIDDRGFRYSDPTQWTAFLGLHDQSQRSAPGVQERRLKRIISHPFFNDFTFDYDIALLELEKPAEYSSMVRPICLPDASHVFPAGKAIWVTGWGHTQYGGTGALILQKGEIRVINQTTCENLLPQQITPRMMCVGFLSGGVDSCQGDSGGPLSSVEADGRIFQAGVVSWGDGCAQRNKPGVYTRLPLFRDWIKENTGV
# Columns and labels:
# [1] = tested on: EGVD/AE-ACT (SEQ ID NO: 53); test: Second order rate constant k*app with EGVD/AE-ACT serpin bait; type: biochemical
# Method: Selected chymase-based engineered proteases were tested to measure the activity of these proteases, by using an active site titration method based on reaction with the inhibitory serpin bait, followed by HPLC analysis to quantitate the active fraction. All references in this Example, including Table 9, to engineered proteases are depicted in chymotrypsin numbering. See Table 6 for the chymotrypsin numbering key for the modified protease domain of chymase. The HPLC analysis detects a shift in the measured peak when the serpin bait is present, an indication that the protease is binding the bait and therefore active. Briefly, a working concentration of 24 μM of serpin bait was prepared from stock solution, with 50 μM of low molecular weight heparin for antithrombin (AT)-based baits. Protease solutions were prepared by using 30 μL of a 5 μM working solution. Reaction mixtures were incubated for 2 hours at 37° C., and each reaction mixture (protease alone or protease with bait) was analyzed by HPLC using standard protocols. All protease alone samples were run first, then followed by the protease with serpin bait samples. A summary of the results for the proteases tested is summarized in Table 9 below. kcat/Km was measured using EGVD/AE-QF (SEQ ID NO: 52) and second order rate constant K*app was measured using EGVD/AE-ACT (SEQ ID NO: 53).
# [2] = Second order rate constant (k*) for inhibition by plasma, extrapolation of half-life in 100% plasma; type: in vitro ADME
# Method: Briefly, a baseline chymase having the modifications C22S/A226R was used. The concentration of the baseline chymase and the tested chymase-based engineered proteases, listed in Table 11B below, were used at 50 nM, and another tested chymase C22S/L99R/F173Y/K192R/S218L/A226R was used at 25 nM. For the baseline chymase, a time course of protease activity in the presence of plasma was measured using 4.2 uM CPQ2-ITLLSA-K(5FAM)-K-PEG8-K(biotin)-NH2 (SEQ ID NO: 17)/21 uM Neutravidin at 37° C.
# Human Factor B = Human Factor B (Homo sapiens, UniProt P00751); test: Human Factor B cleavage EC50 in 80% human plasma (Table 10A); type: biochemical
# Sequence of Human Factor B (P00751 26-764): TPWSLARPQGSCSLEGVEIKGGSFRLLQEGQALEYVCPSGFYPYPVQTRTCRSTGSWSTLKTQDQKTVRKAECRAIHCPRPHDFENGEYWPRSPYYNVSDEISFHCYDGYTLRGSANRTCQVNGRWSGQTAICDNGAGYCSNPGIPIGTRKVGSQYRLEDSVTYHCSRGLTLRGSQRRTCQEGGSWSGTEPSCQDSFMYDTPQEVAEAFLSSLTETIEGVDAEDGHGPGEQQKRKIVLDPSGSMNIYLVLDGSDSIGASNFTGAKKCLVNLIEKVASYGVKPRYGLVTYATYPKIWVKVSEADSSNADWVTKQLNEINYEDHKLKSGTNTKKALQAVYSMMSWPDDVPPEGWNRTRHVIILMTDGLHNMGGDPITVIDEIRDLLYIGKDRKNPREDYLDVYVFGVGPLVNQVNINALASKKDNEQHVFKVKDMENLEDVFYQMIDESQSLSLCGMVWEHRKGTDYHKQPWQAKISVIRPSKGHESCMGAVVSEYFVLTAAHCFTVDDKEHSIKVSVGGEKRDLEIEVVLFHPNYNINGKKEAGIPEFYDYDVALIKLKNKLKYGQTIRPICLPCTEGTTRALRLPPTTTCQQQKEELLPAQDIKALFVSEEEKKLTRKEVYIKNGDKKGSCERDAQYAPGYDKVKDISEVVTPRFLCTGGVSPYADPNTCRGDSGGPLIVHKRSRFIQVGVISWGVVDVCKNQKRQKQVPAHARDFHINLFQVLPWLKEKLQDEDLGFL
# Method: Cleavage of Factor B by various engineered proteases was evaluated. Engineered chymase-, MTSP-1-, and uPA-based proteases were tested. All references in this Example, including Tables 10A, 10B, 11A, and 11B, to engineered proteases are depicted in chymotrypsin numbering. The chymotrypsin numbering key for the modified protease domains of engineered proteases are found in Tables 2, 4, and 6 for uPA, MTSP-1, and chymase, respectively. These experiments were also performed to evaluate the stability of non-naturally occurring chymases in various media, including cynomolgus monkey vitreous humor, human plasma, and phosphate buffered saline (PBS). Briefly, Factor B was diluted into an assay buffer and incubated at 37° C. with naturally occurring (wild type) and non-naturally occurring (engineered) proteases in vitreous humor, plasma, or PBS, and the reactions were quenched with HCl at various time points. The time points tested for chymase include T=0 which used 6 hours pre-incubation, T=2 hours which used 4 hours pre-incubation, T=4 hours which used 2 hours pre-incubation, and T=6 hours which used 0 hours pre-incubation. Assaying of the sample was performed with ELISA, or alpha screen for human C3 cleavage, using standard protocols.
# A summary of the results is presented in Tables 10A-10B below, showing the various tested proteases, the concentration of the protease used in nM and the EC50 of human Factor B cleavage. Table 10 presents human Factor B cleavage by various non-naturally occurring chymase-based engineered proteases, tested in 80% human plasma, compared against a chymase comprising the mutation string […]. Blank cells indicate that a test was not performed for a particular protease mutation string.
# serpins = test: Serpin inhibition tests of chymase-based engineered proteases; type: biochemical
# Method: Inhibition tests were carried out using chymase-based engineered proteases. Various serpins, which are capable of inhibiting protease activity, were used to test whether these could be used for adequate inhibition of the tested chymase-based engineered proteases, to enable selection of an engineered protease resistant to inhibition in plasma. All references in this Example to engineered proteases are depicted in chymotrypsin numbering. The chymotrypsin numbering key for the modified protease domains of engineered proteases are found in Tables 2, 4, and 6 for uPA, MTSP-1, and chymase, respectively.
# [3] = Half-life in 50% human plasma of chymase-based engineered proteases; type: in vitro ADME; conditions: EGVD′AE substrate
# Method: Table 10B presents human Factor B cleavage by various engineered chymase-, MTSP-1-, or uPA-based proteases, tested in mouse or human plasma. For ELISA analysis of Factor B cleavage, briefly, anti-Ba was used, and Bb was detected with anti-Bb. A dynamic range of 25-1600 pM was used. Half-life in 50% human plasma was also calculated for various chymase-based engineered proteases.
# [4] = tested on: Factor B depleted human serum spiked with human Factor B, rabbit or chicken RBCs; test: Factor B add-back hemolysis assay; type: biochemical; conditions: MTSP-1 scaffold, read-out: Hu fB Add-Back EC50
# Method: Hemolysis assays were performed to evaluate the hemolytic activity of various lots of Factor B, a lot obtained from CompTech as compared to a lot expressed in-house. Briefly, Factor B depleted human serum was used, and plasma purified or recombinant human Factor B was used for the add-back. Rabbit red blood cells (RBCs) or chicken RBCs were washed in GVB/Mg/EGTA, and the depleted serum was spiked with Factor B. The RBC lysis was then monitored with CVF/FD/human Factor B convertase. These were analyzed to create standard curves from which the Factor B lots were compared. FIGS. 5-6 depict a bar graph of controls used for the hemolysis assay and the standard curves measured from the tested engineered proteases from the Factor B add-back hemolysis assay, respectively. […] This engineered protease was tested at two concentrations (samples 1 and 2). All references in this Example to engineered proteases are depicted in chymotrypsin numbering. The chymotrypsin numbering key for the modified protease domains of engineered proteases are found in Tables 2, 4, and 6 for uPA, MTSP-1, and chymase, respectively.
# [5] = chymase-based engineered proteases, no plasma stated, read-out: fB Cleavage EC50
# [6] = Plasma Inhibitor: plasma antichymotrypsin (plasma ACT)
# [7] = read-out: fB Cleavage, 80% plasma EC50, chymase-based, 80% human plasma
molecule,measurement,setting,value
B1,k*app EGVD/AE-ACT (SEQ ID NO: 53),[1],77
same,calculated t1/2 (in 100% plasma),[2]; extrapolated from k*,1.58 min
same,k*,"[2]; inhibition by plasma, 37° C.",7.32E−5 %^−1s^−1
same,"fB Cleavage, 80% plasma EC50 (nM)","Human Factor B; chymase-based, 80% human plasma",none
same,kapp,serpins; Plasma Inhibitor: ACT,1045 M⁻¹ s⁻¹
same,kapp,serpins; Plasma Inhibitor: alpha-2-marcroglobin (A2M),812 M⁻¹ s⁻¹
B2,EC50,Human Factor B; [5],3.81 µM
B3,EC50,Human Factor B; [5],7.13 µM
B4,EC50,Human Factor B; [5],4.42 µM
B5,t1/2 in 50% human plasma (min) (EGVD′AE)(SEQ ID NO: 13),[3],7.8 min
same,EC50,Human Factor B; [5],0.83 µM
B6,EC50,Human Factor B; [5],5.56 µM
B7,EC50,Human Factor B; [5],5.99 µM
B8,EC50,Human Factor B; [5],1.77 µM
B9,t1/2 in 50% human plasma (min) (EGVD′AE)(SEQ ID NO: 13),[3],4.2 min
same,kapp,serpins; [6],1599 M⁻¹ s⁻¹
B10,EC50,Human Factor B; [5],2.94 µM
B11,EC50,Human Factor B; [5],4.16 µM
B12,t1/2 in 50% human plasma (min) (EGVD′AE)(SEQ ID NO: 13),[3],6.2 min
same,EC50,Human Factor B; [5],0.564 µM
same,EC50,Human Factor B; [7],7.77 µM
B13,EC50,Human Factor B; [5],5.07 µM
B14,EC50,Human Factor B; [5],6.71 µM
B15,EC50,Human Factor B; [5],3.48 µM
B16,k*app EGVD/AE-ACT (SEQ ID NO: 53),[1],649
B17,k*app EGVD/AE-ACT (SEQ ID NO: 53),[1],30.2
same,kapp,serpins; [6],31166 M⁻¹ s⁻¹
B18,EC50,Human Factor B; [5],2.98 µM
B19,t1/2 in 50% human plasma (min) (EGVD′AE)(SEQ ID NO: 13),[3],5.9 min
same,EC50,Human Factor B; [5],0.65 µM
same,EC50,Human Factor B; [7],21 µM
B20,EC50,[4]; [Protease]high 400 nM,0.0322 µM
same,EC50,[4]; [Protease]high 4000 nM,0.0373 µM
